Assay results published in patent US20230158141A1 (YAFEI SHANGHAI BIOLOG MEDICINE SCIENCE AND TECHNOLOGY, published 2023).
Like-named read-outs stand apart in the source and are kept apart here.

Legend:
PD-1 [1] = target: T1, PD-1 (UniProt Q15116 25-167, limits assumed); assay: ELISA, conjugate vs WT antibody
PD-1 [2] = target: T1, PD-1; assay: ELISA, conjugate vs WT antibody; remark: listed apart in the source
PD-1 [3] = target: T1, PD-1; assay: ELISA, OD mutant/OD WT; B=70-90%

T1 sequence (Q15116 25-167 limits assumed): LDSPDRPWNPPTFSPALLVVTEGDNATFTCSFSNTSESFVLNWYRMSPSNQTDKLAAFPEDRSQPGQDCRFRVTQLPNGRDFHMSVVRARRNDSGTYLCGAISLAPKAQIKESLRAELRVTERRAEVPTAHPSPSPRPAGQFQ

Binder	binding activity (% of WT) (PD-1 [1]) [%]	binding activity (% of WT) (PD-1 [2]) [%]	other results
anti-PD-1 antibody 2 heavy chain A61C-R4-4 (antibody, human IgG4 S228P, kappa, V domains shown, R4-4 on Cys 61) VH: QVQLVESGGGVVQPGRSLRLDCKASGITFSNSGMHWVRQAPGKGLEWVAVIWYDGSKRYYCDSVKGRFTISRDNSKNTLFLQMNSLRAEDTAVYYCATNDDYWGQGTLVTVSS VL: EIVLTQSPATLSLSPGERATLSCRASQSVSSYLAWYQQKPGQAPRLLIYDASNRATGIPARFSGSGSGTDFTLTISSLEPEDFAVYYCQQSSNWPRTFGQGTKVEIKR	83.9		
anti-PD-1 antibody 2 light chain A25C-R4-5 (antibody, human IgG4 S228P, kappa, V domains shown, R4-5 on Cys 25) VH: QVQLVESGGGVVQPGRSLRLDCKASGITFSNSGMHWVRQAPGKGLEWVAVIWYDGSKRYYADSVKGRFTISRDNSKNTLFLQMNSLRAEDTAVYYCATNDDYWGQGTLVTVSS VL: EIVLTQSPATLSLSPGERATLSCRCSQSVSSYLAWYQQKPGQAPRLLIYDASNRATGIPARFSGSGSGTDFTLTISSLEPEDFAVYYCQQSSNWPRTFGQGTKVEIKR		87.2	
anti-PD-1 antibody 2 heavy chain S30C-R4-1 (antibody, human IgG4 S228P, kappa, V domains shown, R4-1 on Cys 30) VH: QVQLVESGGGVVQPGRSLRLDCKASGITFCNSGMHWVRQAPGKGLEWVAVIWYDGSKRYYADSVKGRFTISRDNSKNTLFLQMNSLRAEDTAVYYCATNDDYWGQGTLVTVSS VL: EIVLTQSPATLSLSPGERATLSCRASQSVSSYLAWYQQKPGQAPRLLIYDASNRATGIPARFSGSGSGTDFTLTISSLEPEDFAVYYCQQSSNWPRTFGQGTKVEIKR	107		
anti-PD-1 antibody 2 heavy chain K65C-R4-7 (antibody, human IgG4 S228P, kappa, V domains shown, R4-7 on Cys 65) VH: QVQLVESGGGVVQPGRSLRLDCKASGITFSNSGMHWVRQAPGKGLEWVAVIWYDGSKRYYADSVCGRFTISRDNSKNTLFLQMNSLRAEDTAVYYCATNDDYWGQGTLVTVSS VL: EIVLTQSPATLSLSPGERATLSCRASQSVSSYLAWYQQKPGQAPRLLIYDASNRATGIPARFSGSGSGTDFTLTISSLEPEDFAVYYCQQSSNWPRTFGQGTKVEIKR	92.1		
anti-PD-1 antibody 2 heavy chain K57C-R4-7 (antibody, human IgG4 S228P, kappa, V domains shown, R4-7 on Cys 57) VH: QVQLVESGGGVVQPGRSLRLDCKASGITFSNSGMHWVRQAPGKGLEWVAVIWYDGSCRYYADSVKGRFTISRDNSKNTLFLQMNSLRAEDTAVYYCATNDDYWGQGTLVTVSS VL: EIVLTQSPATLSLSPGERATLSCRASQSVSSYLAWYQQKPGQAPRLLIYDASNRATGIPARFSGSGSGTDFTLTISSLEPEDFAVYYCQQSSNWPRTFGQGTKVEIKR	89.7		
anti-PD-1 antibody 2 heavy chain I51C (antibody, human IgG4 S228P, kappa, V domains shown) VH: QVQLVESGGGVVQPGRSLRLDCKASGITFSNSGMHWVRQAPGKGLEWVAVCWYDGSKRYYADSVKGRFTISRDNSKNTLFLQMNSLRAEDTAVYYCATNDDYWGQGTLVTVSS VL: EIVLTQSPATLSLSPGERATLSCRASQSVSSYLAWYQQKPGQAPRLLIYDASNRATGIPARFSGSGSGTDFTLTISSLEPEDFAVYYCQQSSNWPRTFGQGTKVEIKR			binding activity (OD after mutation/OD wild type) (PD-1 [3]): 70 to 90%

Now from value to binder, other results behind:

binding activity (% of WT) (PD-1 [1]) [%]	binding activity (% of WT) (PD-1 [2]) [%]	Binder	other results
	45.5	anti-PD-1 antibody 2 light chain S92C-R4-1 (antibody, human IgG4 S228P, kappa, V domains shown, R4-1 on Cys 92) VH: QVQLVESGGGVVQPGRSLRLDCKASGITFSNSGMHWVRQAPGKGLEWVAVIWYDGSKRYYADSVKGRFTISRDNSKNTLFLQMNSLRAEDTAVYYCATNDDYWGQGTLVTVSS VL: EIVLTQSPATLSLSPGERATLSCRASQSVSSYLAWYQQKPGQAPRLLIYDASNRATGIPARFSGSGSGTDFTLTISSLEPEDFAVYYCQQSCNWPRTFGQGTKVEIKR	
	34.4	anti-PD-1 antibody 2 light chain S30C-R4-1 (antibody, human IgG4 S228P, kappa, V domains shown, R4-1 on Cys 30) VH: QVQLVESGGGVVQPGRSLRLDCKASGITFSNSGMHWVRQAPGKGLEWVAVIWYDGSKRYYADSVKGRFTISRDNSKNTLFLQMNSLRAEDTAVYYCATNDDYWGQGTLVTVSS VL: EIVLTQSPATLSLSPGERATLSCRASQSVCSYLAWYQQKPGQAPRLLIYDASNRATGIPARFSGSGSGTDFTLTISSLEPEDFAVYYCQQSSNWPRTFGQGTKVEIKR	
	89.4	anti-PD-1 antibody 2 light chain T56C-R4-5 (antibody, human IgG4 S228P, kappa, V domains shown, R4-5 on Cys 56) VH: QVQLVESGGGVVQPGRSLRLDCKASGITFSNSGMHWVRQAPGKGLEWVAVIWYDGSKRYYADSVKGRFTISRDNSKNTLFLQMNSLRAEDTAVYYCATNDDYWGQGTLVTVSS VL: EIVLTQSPATLSLSPGERATLSCRASQSVSSYLAWYQQKPGQAPRLLIYDASNRACGIPARFSGSGSGTDFTLTISSLEPEDFAVYYCQQSSNWPRTFGQGTKVEIKR	
	25.6	anti-PD-1 antibody 2 light chain Y32C-R4-1 (antibody, human IgG4 S228P, kappa, V domains shown, R4-1 on Cys 32) VH: QVQLVESGGGVVQPGRSLRLDCKASGITFSNSGMHWVRQAPGKGLEWVAVIWYDGSKRYYADSVKGRFTISRDNSKNTLFLQMNSLRAEDTAVYYCATNDDYWGQGTLVTVSS VL: EIVLTQSPATLSLSPGERATLSCRASQSVSSCLAWYQQKPGQAPRLLIYDASNRATGIPARFSGSGSGTDFTLTISSLEPEDFAVYYCQQSSNWPRTFGQGTKVEIKR	
	83.9	anti-PD-1 antibody 2 light chain A34C-R4-5 (antibody, human IgG4 S228P, kappa, V domains shown, R4-5 on Cys 34) VH: QVQLVESGGGVVQPGRSLRLDCKASGITFSNSGMHWVRQAPGKGLEWVAVIWYDGSKRYYADSVKGRFTISRDNSKNTLFLQMNSLRAEDTAVYYCATNDDYWGQGTLVTVSS VL: EIVLTQSPATLSLSPGERATLSCRASQSVSSYLCWYQQKPGQAPRLLIYDASNRATGIPARFSGSGSGTDFTLTISSLEPEDFAVYYCQQSSNWPRTFGQGTKVEIKR	
	95.7	anti-PD-1 antibody 2 light chain S31C-R4-1 (antibody, human IgG4 S228P, kappa, V domains shown, R4-1 on Cys 31) VH: QVQLVESGGGVVQPGRSLRLDCKASGITFSNSGMHWVRQAPGKGLEWVAVIWYDGSKRYYADSVKGRFTISRDNSKNTLFLQMNSLRAEDTAVYYCATNDDYWGQGTLVTVSS VL: EIVLTQSPATLSLSPGERATLSCRASQSVSCYLAWYQQKPGQAPRLLIYDASNRATGIPARFSGSGSGTDFTLTISSLEPEDFAVYYCQQSSNWPRTFGQGTKVEIKR	
